Results published in article PMC11228805.

Target: gp41 (Q567K/A582T/A532V/I535M/L543Q/K574R/S752F/I756F) of the HIV-1AD8 Tri FPPR Bam Envs with K574R (HIV-1 AD8)
Assay: gp120 shedding from virus particles

Row | Substance | fold reduction of gp120 shedding against the Tri FPPR Bam Env [fold] | fold resistance to gp120 shedding (CD4mc+cold) against the Tri Bam Env [times]
1 | gp120 (Q114E) of the HIV-1AD8 Tri Bam, Tri FPPR Bam and Tri FPPR Bam-K574R Envs (natural protein) | 3.9 | 
2 | gp120 (Q114E/K59A) of the HIV-1AD8 Tri FPPR Bam-K59A and Tri FPPR Bam-K59A/K574R Envs (natural protein) |  | 40
